Assay [1] deals with BiP NBD (human BiP nucleotide binding domain, aa 26-405, from 6His-Smt3-BiP NBD) (human) (UniProt P11021). Description: MST.
Assay [2] has the same target. Description: SPR.

UniProt P11021, sequence (P11021 26-405): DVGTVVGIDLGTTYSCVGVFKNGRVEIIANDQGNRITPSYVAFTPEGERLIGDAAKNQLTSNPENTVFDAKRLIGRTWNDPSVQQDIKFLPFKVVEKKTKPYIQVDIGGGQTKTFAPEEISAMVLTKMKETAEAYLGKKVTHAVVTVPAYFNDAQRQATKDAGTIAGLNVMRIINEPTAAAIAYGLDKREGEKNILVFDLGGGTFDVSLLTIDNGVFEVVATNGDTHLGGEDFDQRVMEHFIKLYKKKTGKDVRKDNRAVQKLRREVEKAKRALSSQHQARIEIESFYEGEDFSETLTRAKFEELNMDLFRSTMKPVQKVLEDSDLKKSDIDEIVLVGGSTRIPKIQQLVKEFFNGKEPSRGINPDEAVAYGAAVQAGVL

The Kd is the free concentration of one partner at which half of the binding sites on the other are occupied at equilibrium, for simple one-to-one binding. High values mean a looser complex, low ones a tighter complex. The substance “CDNF V118Y-E137A double mutant purified from CHO cells (natural protein)” came in with a Kd in assay [1] above 10 µM.

Consider “CDNF A134Q purified from CHO cells (natural protein)”, for which the Kd in assay [1] was above 10 µM.

“FL-CDNF (aa 1-161) purified from E. coli (natural protein)”: the Kd in assay [2] came out at 23.4 µM.

These data come from doi:10.1101/2025.07.08.663636.
